Where two headings read alike, the source gives them in different places.
Columns and labels:
[1] = Ex vivo biodistribution of 86Y-labeled variants in AR42J tumor-bearing mice; settings: athymic nude, mouse, iv, 1 ug, total radioactivity, mean; for tissue uptake at 1 h: 1 h post-injection; for tissue uptake at 4 h: 4 h post-injection; for tissue uptake at 24 h: 24 h post-injection
Protocol: To independently confirm these observations, ex vivo biodistribution studies were conducted using the same ^86Y-labeled compounds at matched timepoints (Fig. S16; Table S3). […]
For studies involving three variants (DOTA -TATE, DOTA-MVK(ε)-TATE, and DOTA-β-Gal-TATE), AR42J cells (5 × 10^6 cells per mouse) were subcutaneously inoculated into the right shoulder of the mice. Tumors were allowed to grow for 3 weeks, reaching a volume of 100 –200 mm³ before being used in subsequent experiments. For biodistribution or PET imaging studies, mice bearing subcutaneous AR42J tumors were administered 1.4 – 1.8 MBq (1 μg) of 111In-labeled DOTA-TATE variants or 2.7 – 4.9 MBq (1 μg) of 86Y-labeled DOTA-TATE variants via tail vein injection. Biodistribution studies with 111In-labeled DOTA -TATE variants were performed 1 hour post -injection (n = 3 per cohort), while studies with 86Y-labeled DOTA-TATE variants were conducted at 1, 4, and 24 hours post -injection (n = 3 per cohort). Mice were euthanized by CO2 asphyxiation, and 10 tissues, including tumors, were collected. All samples were weighed and counted on a gamma counter (2480 Wizard 3, Perkin Elmer Inc., Waltham, MA, USA). Results are presented as percentage of injected activity per gram (%IA/g) and mean values ± standard deviations. […]

[2] = PET/CT quantification of 86Y-labeled variants in AR42J xenograft mice; assay type: in vivo; settings: athymic nude, mouse, in vivo, iv, total radioactivity, 86Y-labeled, PET/CT, AR42J xenograft mice, mean ± SD, n = 3; for SUV at 1 h: 1 h post-injection; for SUV at 4 h: 4 h post-injection; for SUV at 24 h: 24 h post-injection
Protocol: For studies involving three variants (DOTA -TATE, DOTA-MVK(ε)-TATE, and DOTA-β-Gal-TATE), AR42J cells (5 × 10^6 cells per mouse) were subcutaneously inoculated into the right shoulder of the mice. Tumors were allowed to grow for 3 weeks, reaching a volume of 100 –200 mm³ before being used in subsequent experiments. For biodistribution or PET imaging studies, mice bearing subcutaneous AR42J tumors were administered 1.4 – 1.8 MBq (1 μg) of 111In-labeled DOTA-TATE variants or 2.7 – 4.9 MBq (1 μg) of 86Y-labeled DOTA-TATE variants via […]
tail vein injection. […]
PET imaging to assess the uptake of three 86Y-labeled DOTA-TATE variants (2.7 – 4.9 MBq, 1 μg) in the kidney and tumor was performed at 1, 4, and 24 hours post-injection (n = 3 per cohort) in mice bearing AR42J tumors using the MRS*PET/CT 120 scanner (MR Solutions, Guildford, UK). PET/CT data acquisition was managed using Preclinical Scan software (version 4.2.4.0, MR Solutions). Mice were anesthetized with 2% isoflurane, and static PET sc ans were acquired over 10 min. CT scans were obtained for attenuation correction and anatomical co-registration.
PET data were reconstructed using three-dimensional ordered-subsets expectation maximization, and were subsequently normalized, decay - and dead-time–corrected prior to analysis. PET/CT images were analyzed using MIM software (version 7.2.7, MIM Software Inc., Beachwood, OH, USA), and the quantitative evaluation of the maximum standardized uptake (SUVmax) and the average standardized uptake values (SUVmean) in the kidney and tumor were also performed. […]

[3] = blood, i.v. 1 μg (2.7–4.9 MBq), ex vivo gamma counting, n = 3, read-out: Blood uptake
[4] = blood, ex vivo, n = 3, read-out: Blood uptake
[5] = femur, ex vivo, n = 3, read-out: Femur uptake
[6] = heart, ex vivo, n = 3, read-out: Heart uptake
[7] = intestine, ex vivo, n = 3, read-out: Intestine uptake
[8] = ex vivo, n = 3, read-out: Tumor uptake
[9] = kidney, ex vivo, n = 3, read-out: Kidney uptake
[10] = liver, ex vivo, n = 3, read-out: Liver uptake
[11] = lung, ex vivo, n = 3, read-out: Lung uptake
[12] = muscle, ex vivo, n = 3, read-out: Muscle uptake
[13] = spleen, ex vivo, n = 3, read-out: Spleen uptake
[14] = 2.7–4.9 MBq (1 μg), read-out: Kidney SUVmax

Structure (SMILES)	tissue uptake at 1 h [1, 3] [%ID/g]	tissue uptake at 4 h [1, 4] [%ID/g]	tissue uptake at 24 h [1, 4] [%ID/g]	tissue uptake at 1 h [1, 5] [%ID/g]	tissue uptake at 4 h [1, 5] [%ID/g]	tissue uptake at 24 h [1, 5] [%ID/g]	tissue uptake at 1 h [1, 6] [%ID/g]	tissue uptake at 4 h [1, 6] [%ID/g]	tissue uptake at 24 h [1, 6] [%ID/g]	tissue uptake at 1 h [1, 7] [%ID/g]	tissue uptake at 4 h [1, 7] [%ID/g]	tissue uptake at 24 h [1, 7] [%ID/g]	tissue uptake at 1 h [1, 8] [%ID/g]	tissue uptake at 4 h [1, 8] [%ID/g]	tissue uptake at 24 h [1, 8] [%ID/g]	tissue uptake at 1 h [1, 9] [%ID/g]	tissue uptake at 4 h [1, 9] [%ID/g]	tissue uptake at 24 h [1, 9] [%ID/g]	tissue uptake at 1 h [1, 10] [%ID/g]	tissue uptake at 4 h [1, 10] [%ID/g]	also measured
C[C@@H](O)[C@H](NC(=O)[C@@H]1CSSC[C@H](NC(=O)[C@@H](Cc2ccccc2)NC(=O)CCCC(=O)Nc2cc(COC(=O)N(C)CCNC(=O)CN3CCN(CC(=O)O)CCN(CC(=O)O)CCN(CC(=O)O)CC3)ccc2O[C@@H]2O[C@H](CO)[C@H](O)[C@H](O)[C@H]2O)C(=O)N[C@@H](Cc2ccc(O)cc2)C(=O)N[C@H](Cc2c[nH]c3ccccc23)C(=O)N[C@@H](CCCCN)C(=O)N[C@@H]([C@@H](C)O)C(=O)N1)C(=O)O [^86Y-DOTA-β-Gal-TATE, metal not drawn]	0.32	0.23	0.02	0.97	0.96	1.01	0.33	0.26	0.11	0.49	0.33	0.1	9.71	9.16	9.03	3.94	3.29	0.76	0.4	0.35	tissue uptake at 24 h [1, 10]: 0.27 %ID/g; tissue uptake at 1 h [1, 11]: 0.72 %ID/g; tissue uptake at 4 h [1, 11]: 0.58 %ID/g; tissue uptake at 24 h [1, 11]: 0.15 %ID/g; tissue uptake at 1 h [1, 12]: 0.48 %ID/g; tissue uptake at 4 h [1, 12]: 0.25 %ID/g; tissue uptake at 24 h [1, 12]: 0.09 %ID/g; tissue uptake at 1 h [1, 13]: 0.32 %ID/g; tissue uptake at 4 h [1, 13]: 0.5 %ID/g; tissue uptake at 24 h [1, 13]: 0.12 %ID/g; SUV at 1 h [2, 14]: 0.54 ± 0.05 SUV; SUV at 1 h ([2]; read-out: Tumor SUVmax): 1.96 ± 0.26 SUV; SUV at 4 h ([2]; read-out: Kidney SUVmax): 0.4 ± 0.02 SUV; SUV at 4 h ([2]; read-out: Tumor SUVmax): 1.63 ± 0.09 SUV; SUV at 24 h ([2]; read-out: Kidney SUVmax): 0.14 ± 0.01 SUV; SUV at 24 h ([2]; read-out: Tumor SUVmax): 1.86 ± 0.25 SUV
C[C@@H](O)[C@H](NC(=O)[C@@H]1CSSC[C@H](NC(=O)[C@@H](Cc2ccccc2)NC(=O)CN2CCN(CC(=O)O)CCN(CC(=O)O)CCN(CC(=O)O)CC2)C(=O)N[C@@H](Cc2ccc(O)cc2)C(=O)N[C@H](Cc2c[nH]c3ccccc23)C(=O)N[C@@H](CCCCN)C(=O)N[C@@H]([C@@H](C)O)C(=O)N1)C(=O)O [^86Y-DOTA-TATE, metal not drawn, reference compound]	0.22	0.14	0.03	0.47	0.35	0.2	0.37	0.25	0.09	0.37	0.51	0.05	5.98	4.83	3.48	9.29	6.61	3.74	0.29	0.25	tissue uptake at 24 h [1, 10]: 0.15 %ID/g; tissue uptake at 1 h [1, 11]: 0.83 %ID/g; tissue uptake at 4 h [1, 11]: 0.34 %ID/g; tissue uptake at 24 h [1, 11]: 0.13 %ID/g; tissue uptake at 1 h [1, 12]: 0.44 %ID/g; tissue uptake at 4 h [1, 12]: 0.38 %ID/g; tissue uptake at 24 h [1, 12]: 0.1 %ID/g; tissue uptake at 1 h [1, 13]: 0.4 %ID/g; tissue uptake at 4 h [1, 13]: 0.25 %ID/g; tissue uptake at 24 h [1, 13]: 0.15 %ID/g; SUV at 1 h [2, 14]: 0.95 ± 0.04 SUV; SUV at 1 h ([2]; read-out: Tumor SUVmax): 0.85 ± 0.14 SUV; SUV at 4 h ([2]; read-out: Kidney SUVmax): 0.62 ± 0.06 SUV; SUV at 24 h ([2]; read-out: Kidney SUVmax): 0.41 ± 0.02 SUV; SUV at 24 h ([2]; read-out: Tumor SUVmax): 0.55 ± 0.04 SUV

From doi:10.1101/2025.09.11.675134, “Biodistribution-Driven Discovery Identifies a Glycosidase-Cleavable Linker to Reprogram Radiotheranostics” (bioRxiv, 2025)
